Measurements taken from article PMC2680606.

Molecular target: Myc-UbcM2-His6 (mouse) (UniProt P52483)
Assay: pull-down

Myc-UbcM2-His6 (mouse), sequence (P52483 whole entry): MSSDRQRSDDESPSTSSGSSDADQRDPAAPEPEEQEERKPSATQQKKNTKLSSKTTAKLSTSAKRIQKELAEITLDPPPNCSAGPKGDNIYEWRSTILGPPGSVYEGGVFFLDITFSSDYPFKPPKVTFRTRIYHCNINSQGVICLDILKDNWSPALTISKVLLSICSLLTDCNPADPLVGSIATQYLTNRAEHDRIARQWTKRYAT
^35S-RCBTB1 without the BTB domain and the C-terminal 87 residues, sequence (Q8NDN9 1-359): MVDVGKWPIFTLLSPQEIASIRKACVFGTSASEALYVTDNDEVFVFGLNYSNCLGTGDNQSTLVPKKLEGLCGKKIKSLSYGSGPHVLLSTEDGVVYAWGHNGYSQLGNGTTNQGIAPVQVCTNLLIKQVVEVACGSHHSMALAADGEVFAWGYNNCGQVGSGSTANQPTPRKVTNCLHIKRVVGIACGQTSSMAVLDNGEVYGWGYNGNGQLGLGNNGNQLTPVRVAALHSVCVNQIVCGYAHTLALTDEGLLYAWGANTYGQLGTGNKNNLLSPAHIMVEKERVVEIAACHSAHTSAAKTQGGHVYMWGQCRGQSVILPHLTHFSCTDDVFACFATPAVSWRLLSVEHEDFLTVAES

decrease of binding against wild type RCBTB1: 78%
Substance: ^35S-RCBTB1 without the BTB domain and the C-terminal 87 residues (from UniProt Q8NDN9 1-359) (domain or fragment)
